Experimental data: US20150037312A1 (University of Washington, published 2015)

Molecular target: T1, Rituximab (human IgG1), biotinylated (human)
T1 construct: Whole IgG; In the first screen it was oligomerized with streptavidin-phycoerythrin; in SPR it was captured on a streptavidin chip; also called Rituxan; IgG1 Rituxan
Assay: titration of biotinylated Rituxan on yeast displaying the clone; pH 8 implied
Protocol: We then determined the Kd of exemplary isolated clones for IgG at different pHs. Measurements were taken via titrations of biotinylated Rituxan (Rituximab) using yeast surface display as discussed in the materials and methods sections.
Yeast cells (EBY100) containing plasmid encoding the designs, were grown overnight at 30° C. in SDCAA medium. For induction, they were sub-cultured into SGCAA to achieve an O.D. of 1, and grown at 22° C. for 16-20 h. Cells were washed once with PBS containing 0.5% BSA (PBS-BSA), before adding 700 nM biotinylated IgG (Rituximab) into a total volume of 50 μl of the same buffer. […] Cells were washed once with ice cold PBS-BSA immediately before measuring their fluorescence via an Accuri C6 flow cytometer, data was analyzed using the FlowJo 7.6.1 and 8.8.7 software.

B1: FcB6.1 (designed binder)
chain: PEEALIVVDMQRDFMPGGALPVPEGDKIIPKVNEYIRKFKEKGALIVATRDWHPENHISFRERGGPWPRHCVQNTPGAEFVVDLPEDAVIISKATEPDKEAYSGFEGTDLAKILRGNGVKRVYICGVATEYCVSRTAVDALKHGFEVYLLRDAVKGIKPTFEQQSFFYMSLKGIKIVQF
notes: Clone from the pH 8 selection of the focused library; also called Fc24.47
  Kd: ~2 nM
